Data taken from patent US20120107330A1 (published 2012).
Substitutions are numbered along the chain they refer to. Where two headings read alike, the source gives them in different places. Ends that are not written are not given here.

T1: peptide A3 (negative control fragment of human TNFR1) (human, cysteine pairing not given here; also: biotinylated, position not given here)
T1 construct: also called control peptide
T1 peptide: SGSGNDCPGPGQDTDCREC

T2: peptide D2 (domain-1 peptide of human TNFR1) (human, cysteine pairing not given here; also: biotinylated, position not given here)
T2 construct: also called peptide 1
T2 peptide: SGSGNSICCTKCHKGTYLY

T3: peptide D5 (domain-3 peptide of human TNFR1) (human, also: biotinylated, position not given here)
T3 construct: also called peptide 2
T3 peptide: SGSGCRKNQYRHYWSENLF

T4: peptide E5 (overlapping domain-3 peptide of human TNFR1) (human, also: biotinylated, position not given here)
T4 construct: also called peptide 3
T4 peptide: SGSGNQYRHYWSENLFQCF

T5: human TNFR1 on MRC-5 cells (human, UniProt P19438 30-455)
T5 sequence (looked up): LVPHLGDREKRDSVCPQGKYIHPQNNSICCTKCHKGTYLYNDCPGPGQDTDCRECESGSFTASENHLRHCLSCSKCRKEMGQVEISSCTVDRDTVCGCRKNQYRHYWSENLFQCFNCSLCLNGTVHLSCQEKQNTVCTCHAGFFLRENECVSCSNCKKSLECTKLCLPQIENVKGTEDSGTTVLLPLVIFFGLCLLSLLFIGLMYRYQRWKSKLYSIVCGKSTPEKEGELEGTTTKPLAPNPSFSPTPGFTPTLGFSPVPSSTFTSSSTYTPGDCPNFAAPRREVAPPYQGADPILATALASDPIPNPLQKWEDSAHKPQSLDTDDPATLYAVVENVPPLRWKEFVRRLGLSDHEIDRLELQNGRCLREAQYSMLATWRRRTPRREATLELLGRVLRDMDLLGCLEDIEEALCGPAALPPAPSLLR

T6: mouse TNFR1 on L929 cells (mouse, UniProt P25118 30-454)
T6 sequence (looked up): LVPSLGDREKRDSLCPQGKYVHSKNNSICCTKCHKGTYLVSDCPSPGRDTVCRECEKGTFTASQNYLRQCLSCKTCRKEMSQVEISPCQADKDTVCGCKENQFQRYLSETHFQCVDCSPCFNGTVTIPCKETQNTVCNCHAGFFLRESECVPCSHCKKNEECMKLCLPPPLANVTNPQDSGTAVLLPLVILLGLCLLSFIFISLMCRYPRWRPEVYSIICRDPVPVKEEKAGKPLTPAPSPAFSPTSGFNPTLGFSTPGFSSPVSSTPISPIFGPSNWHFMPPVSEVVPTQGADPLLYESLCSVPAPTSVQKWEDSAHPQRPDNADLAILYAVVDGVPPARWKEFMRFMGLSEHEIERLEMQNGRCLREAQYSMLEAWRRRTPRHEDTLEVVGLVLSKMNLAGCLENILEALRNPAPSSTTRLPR

T7: human TNFR1 (recombinant, R&D Systems cat no. 636-R1/CF, biotinylated) (human, UniProt P19438 30-211, limits assumed, biotinylated with EZ-Link NHS-LC-LC-biotin)
T7 construct: it is not tied to the BIAcore reagent; also called p55; hTNFR1
T7 sequence (looked up): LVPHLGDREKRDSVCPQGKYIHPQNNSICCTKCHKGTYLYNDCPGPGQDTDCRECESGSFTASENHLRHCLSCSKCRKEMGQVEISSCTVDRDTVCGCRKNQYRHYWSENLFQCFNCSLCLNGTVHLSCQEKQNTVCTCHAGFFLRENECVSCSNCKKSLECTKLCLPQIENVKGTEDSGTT

B1: DOM1m-21-23 (other)
VH: EVQLLESGGGLVQPGGSLRLSCAASGFTFNRYSMGWLRQAPGKGLEWVSRIDSYGRGTYYEDPVKGRFSISRDNSKNTLYLQMNSLRAEDTAVYYCAKISQFGSNAFDYWGQGTQVTVSS
notes: VH dAb; also called DOM1m-12-23 [sic]
B2: DOM1h-131-511 (other)
VH: EVQLLESGGGLVQPGGSLRLSCAASGFTFAHETMVWVRQAPGKGLEWVSHIPPVGQDPFYADSVKGRFTISRDNSKNTLYLQMNSLRAEDTAVYYCALLPKRGPWFDYWGQGTLVTVSS
notes: also called control dAb
B3: DMS0132 (bispecific antibody)
chain: EVQLLESGGGLVQPGGSLRLSCAASGFTFVKYSMGWVRQAPGKGLEWVSQISDTADRTYYAHSVKGRFTISRDNSKNTLYLQMNSLRAEDTAVYYCAIYTGRWVPFEYWGQGTLVTVSSASTDIQMTQSPSSLSASVGDRVTITCRASRPIGTTLSWYQQKPGKAPKLLILWNSRLQSGVPSRFSGSGSGTDFTLTISSLQPEDFATYYCAQAGTHPTTFGQGTKVEIKR
notes: anti-TNFR1 dAb / AlbudAb in-line fusion
B4: DMS0133 (bispecific antibody)
chain: B3 chain with V30F, V104A
notes: as for B3
B5: DMS0135 (bispecific antibody)
chain: B3 chain with V30F, A61S
notes: as for B3
B6: DMS0134 (bispecific antibody)
chain: B3 chain with V30F
notes: as for B3
B7: DOM1h-549 (other)
VH: EVQLLESGGGLVQPGGSLRLSCAASGFTFVDYEMHWVRQAPGKGLEWVSSISESGTTTYYADSVKGRFTISRDNSKNTLYLQMNSLRAEDTAVYYCAKRRFSASTFDYWGQGTLVTVSS
notes: VH dAb
B8: DMS0188 (bispecific antibody)
chain: EVQLLESGGGLVQPGGSLRLSCAASGFTFVKYSMGWVRQAPGKGPEWVSQISNTGDRTYYADSVKGRFTISRDNSKNTLYLQMNSLRAEDTAVYYCAIYTGRWEPFDYWGQGTLVTVSSASTSGPSDIQMTQSPSSLSASVGDRVTITCRASRPIGTMLSWYQQKPGKAPKLLILFGSRLQSGVPSRFSGSGSGTDFTLTISSLQPEDFATYYCAQAGTHPTTFGQGTKVEIKRAAAEQKLISEEDLN
notes: as for B3
B9: DMS0163 (bispecific antibody)
chain: B8 chain with F176A, G177F
notes: as for B3
B10: DOM1h-509 (other)
VH: EVQLLESGGGLVQPGGSLRLSCAASGFTFSQYRMHWVRQAPGKSLEWVSSIDTRGSSTYYADPVKGRFTISRDNSKNTLYLQMNSLRAEDTAVYYCAKAVTMFSPFFDYWGQGTLVTVSS
notes: VH domain antibody (dAb)

Columns and labels:
[1] = target: human TNFR1 (recombinant, R&D Systems cat no. 636-R1/CF, biotinylated) (human) (UniProt P19438); experiment: BIAcore, human TNFR1 on SA chip, second injection after DOM1h-574-16 as competitor
[2] = target: T1, peptide A3 (negative control fragment …); experiment: BIAcore, biotinylated peptide A3 on SA chip
[3] = target: T2, peptide D2 (domain-1 peptide of human …); experiment: BIAcore, biotinylated peptide D2 on SA chip
[4] = target: T3, peptide D5 (domain-3 peptide of human …); experiment: BIAcore, biotinylated peptide D5 on SA chip
[5] = target: T4, peptide E5 (overlapping domain-3 …); experiment: BIAcore, biotinylated peptide E5 on SA chip
[6] = target: T1, peptide A3 (negative control fragment …); experiment: BIAcore, biotinylated peptide A3 on SA chip
[7] = target: T2, peptide D2 (domain-1 peptide of human …); experiment: BIAcore, biotinylated peptide D2 on SA chip
[8] = target: T3, peptide D5 (domain-3 peptide of human …); experiment: BIAcore, biotinylated peptide D5 on SA chip
[9] = target: T4, peptide E5 (overlapping domain-3 …); experiment: BIAcore, biotinylated peptide E5 on SA chip
[10] = target: T8, TNFR1-Fc fusion (R&D Systems Cat #372-RI) (human, UniProt P19438 30-211); experiment: receptor binding assay: TNFR1-Fc on beads incubated with the dAb, then with TNFα (blocked ligand); % inhibition of TNFα binding to TNFR1
T8 construct: range 30-211; also called TNFR1-containing beads; not shown: Human IgG1 (Pro100-Lys330)

[11] = target: T8, TNFR1-Fc fusion (R&D Systems Cat …); experiment: receptor binding assay: TNFR1-Fc on anti-IgG beads, dAb titrated, blocked ligand TNFα detected with biotinylated anti-TNFα and fluorescent streptavidin (FMAT)
Description: The potency of the dAbs was determined against human TNFR1 in a receptor binding assay. This assay measures the binding of TNF-alpha to TNFR1 and the ability of soluble dAb to block this interaction. The TNFR1-Fc fusion (R&D Systems, Cat#372-RI.) is captured on a bead pre-coated with goat anti-human IgG (Spherotech, Cat#HUP-60-S). The receptor coated beads are incubated with TNF-alpha (10 ng/ml, Peprotech Cat#300-01A), dAb, biotin conjugated anti-TNF-alpha (Hycult Biotechnology Cat#HM2027.) and streptavidin Alexa Fluor 647 (Molecular Probes, (Invitrogen) Cat#32357) in a black sided clear bottomed 384 well plate. After 6 hours the plate is read on the ABI 8200 Cellular Detection system and bead associated fluorescence determined. If the dAb blocks TNF-alpha binding to TNFR1 the fluorescent intensity will be reduced.

[12] = target: T5, human TNFR1 on MRC-5 cells; experiment: cell-based or functional assay
[13] = target: T6, mouse TNFR1 on L929 cells; experiment: cell-based or functional assay
[14] = target: T7, human TNFR1 (recombinant, R&D Systems …); experiment: BIAcore, TNFR1 (species not given, taken as human)
[15] = target: T7, human TNFR1 (recombinant, R&D Systems …); experiment: BIAcore, biotinylated human TNFR1 on SA chip, purified dAb injected (concentration not given)
[16] = target: T5, human TNFR1 on MRC-5 cells; experiment: cell-based or functional assay; remark: listed apart in the source
[17] = target: T9, human serum albumin (HSA, Sigma-Aldrich) (human, UniProt P02768 25-609); experiment: BIAcore, HSA on CM5 chip
T9 construct: also called human albumin
Description: (§1) FIG. 23. BIAcore analysis for binding of DOM0100-AlbudAb in-line fusions to human serum albumin (HSA). HSA (Sigma-Aldrich) was coated on a BIAcore CM5 chip using EDC/NHS chemistry according to manufacturer's instructions. Subsequently, the DMS constructs, each consisting N-terminally to C-terminally of an anti-TNFR1 dAb-Linker-AlbudAb and identified in Table 6, were injected at 1 μM over the HSA surface and binding was monitored. […] The corresponding BIAcore trace for each DMS clone is indicated with an arrow.

[18] = target: T10, mouse serum albumin (MSA, Sigma-Aldrich) (mouse, UniProt P07724 25-608); experiment: BIAcore, MSA on CM5 chip
T10 construct: also called mouse albumin
Description: as §1, with “22.” for “23.”, “mouse” for “human”, “(MSA). MSA” for “(HSA). HSA”, “MSA” for “HSA”
After expression and purification, all constructs were tested on the BIAcore for binding to both mouse and human serum albumin. The off-rates were determined and used to discriminate between the AlbudAbs for their suitability in prolonging the half-life of the fusion molecule. Whereas the linker had little influence on the affinity of the AlbudAb for albumin, a significant difference existed between the dAbs and their albumin affinity. The best AlbudAb for mouse binding was DOM7h-11-15 followed by DOM7m-16 and DOM7h-11-12 (FIG. 22).

T9 sequence (P02768 25-609 limits assumed): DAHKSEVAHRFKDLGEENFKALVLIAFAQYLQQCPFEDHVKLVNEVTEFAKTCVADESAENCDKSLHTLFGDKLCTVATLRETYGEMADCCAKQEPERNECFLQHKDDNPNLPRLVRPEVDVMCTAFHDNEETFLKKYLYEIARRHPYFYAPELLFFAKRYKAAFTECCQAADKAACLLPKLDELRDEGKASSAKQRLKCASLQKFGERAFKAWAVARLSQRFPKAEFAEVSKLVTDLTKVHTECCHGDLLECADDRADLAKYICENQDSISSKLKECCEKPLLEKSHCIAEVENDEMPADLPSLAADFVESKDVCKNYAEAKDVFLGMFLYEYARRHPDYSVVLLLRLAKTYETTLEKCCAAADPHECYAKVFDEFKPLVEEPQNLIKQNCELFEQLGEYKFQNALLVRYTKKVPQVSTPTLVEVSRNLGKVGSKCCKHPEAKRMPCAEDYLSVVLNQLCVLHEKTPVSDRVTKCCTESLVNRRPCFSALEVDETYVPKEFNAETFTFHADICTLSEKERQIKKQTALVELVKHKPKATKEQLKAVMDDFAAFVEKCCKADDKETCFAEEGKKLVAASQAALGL

| Molecule | MRC5 ND50 [12] [nM] | L929 ND50 [13] [nM] | Kd [14] [nM] | koff [14] [s⁻¹] | kon [14] [M⁻¹ s⁻¹] | other results |
| --- | --- | --- | --- | --- | --- | --- |
| mAb Clone 4.12 (Invitrogen, cat. no. Zymed 33-0100) (antibody) | – | – | – | – | – | decrease of binding (RUs) in the presence of the competitor [1]: 20% |
| B1 | – | – | – | – | – | binding result [2]: no binding (tested: 2.5 µM); binding result [3]: no binding (tested: 2.5 µM); binding result [4]: no binding (tested: 2.5 µM); binding result [5]: no binding (tested: 2.5 µM) |
| B2 | – | – | – | – | – | binding result [6]: no binding (tested: 2.5 µM); binding result [7]: no binding (tested: 2.5 µM); binding result [8]: no binding (tested: 2.5 µM); binding result [9]: no binding (tested: 2.5 µM); IC50 (read off the curve) [10]: ~0.1 nM; IC50 (read off the curve) [11]: ~0.1 nM |
| B3 | 1.04 | 6.8 | 0.25 | 4.6e-05 | 190000 | – |
| B4 | 0.99 | 4.2 | 0.2 | 3.6e-05 | ~180000 | – |
| B5 | 1.17 | 5.9 | 0.32 | 5.7e-05 | 180000 | – |
| B6 | 0.96 | 5.8 | 0.26 | 4.9e-05 | 190000 | – |
| B7 | – | – | – | – | – | binding result [15]: binds |
| B8 | – | – | – | – | – | ND50 (MRC5) [16]: 17 nM; koff [17]: 0.12 s⁻¹; koff [18]: 0.08 s⁻¹ |
| B9 | – | – | – | – | – | ND50 (MRC5) [16]: 12 nM; koff [17]: 0.0024 s⁻¹; koff [18]: 0.0062 s⁻¹ |
| B10 | – | – | – | – | – | binding result [15]: binds |
